The source of these data is US11260098B2, “Method for suppressing obesity or development of obesity” (priority 2014, dated 2022).

The subject of one series is mice. The series is described as follows: Conditioned taste aversion preference test. Conditions: i.p. 0.5 ml, dose giving about 1/2 food suppression (1/4 dilution, 1/16 dilution, undiluted filtrate), FIG. 14. Format: in vivo. The protocol: 8. […] To define whether the appetite-suppressing effects induced by the undiluted solution of liquid component, the residual liquid containing the >3,000 component, and the filtrated liquid containing the <3,000 component were non-specific, a conditioned taste aversive test (a conditioned taste aversion preference test) was carried out in mice. For 5 days, each of mice was adapted to two bottles containing water, allowing to the drinking schedule of 2 hours per day (10:00 am to 12:00). On Day 6 of the test, each mice was allowed to drink water for 30 minutes followed by installation of 2 bottles added with saccharine solution (0.15%). Thereafter, saline, the liquid components or lithium chloride (molecular weight: 42.4 daltons) solution, each in an amount of 0.5 ml, was intraperitoneally administered to mice (n=5), and the conditions were set up as the aversion learning of the taste against saccharine solution. Subsequently, each of mice was subjected to drink for 90 minutes using 2 botties with water. […] On Day 8 of the test, the animals were allowed to drink for 30 minutes using 2 bottles with either water or saccharine solution, and the preference ratio for drinking of saccharine solution (the amounts of saccharine solution intake÷the amounts of entire water intake for 2 bottles) was calculated. […] The data are expressed as mean value±standard deviation. […]

Another series relates to rat. To be noted: centrally administered to the rat ventricle; cited from earlier work.
For series [1] the following is noted: intraperitoneal administration; cited from earlier work.

As to `[Cl-].[Li+]` [lithium chloride], the “preference intake of saccharine solution” value with mice was “significantly suppressed”.

B1: nesfatin-1: satiety molecule generated by processing of the secretory protein nesfatin; human nesfatin-1 9,695 daltons (protein, UniProt P80303 25-106, looked up)
Nesfatin-1: VPIDIDKTKVQNIHPVESAKIEPPDTGLYYDEYLKQVIDVLETDKHFREKLQKADIEEIKSGRLSKELDLVSHHVRTKLDEL
modifications: Nesfatin-1
notes: satiety molecule generated by processing of the secretory protein nesfatin; human nesfatin-1 9,695 daltons
As for B1, the food intake result with rat is “significantly suppressed”. Besides, the appetite suppression result in series [1] is reported as “induced appetite suppression in a dose-dependent manner”.
